The text below walks through data of PMC5624674, “CbtA toxin of Escherichia coli inhibits cell division and cell elongation via direct and independent interactions with FtsZ and MreB” (PLoS Genetics, 2017).

To fix the notation:
T1: λCI-CbtA fusion protein (wild-type CbtA toxin of E. coli) (E. coli, UniProt P64524 1-124)
T1 construct: also called YeeV; source: bacterial two-hybrid fusion, produced in E. coli reporter strain FW102 OL2-62; not shown: λCI, N-terminal, kept
T1 sequence: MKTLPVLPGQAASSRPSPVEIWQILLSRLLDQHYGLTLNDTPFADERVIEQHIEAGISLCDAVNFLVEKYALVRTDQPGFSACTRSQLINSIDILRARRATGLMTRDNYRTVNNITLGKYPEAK

T2: λCI-CbtA-V48E (E. coli, UniProt P64524 1-124, V48E)
T2 construct: source: bacterial two-hybrid fusion, produced in E. coli reporter strain FW102 OL2-62; not shown: λCI, N-terminal, kept
T2 sequence: T1 sequence with V48E

B1: α-FtsZ fusion protein (wild-type E. coli FtsZ) (natural protein, UniProt P0A9A6 1-383, looked up)
chain: MFEPMELTNDAVIKVIGVGGGGGNAVEHMVRERIEGVEFFAVNTDAQALRKTAVGQTIQIGSGITKGLGAGANPEVGRNAADEDRDALRAALEGADMVFIAAGMGGGTGTGAAPVVAEVAKDLGILTVAVVTKPFNFEGKKRMAFAEQGITELSKHVDSLITIPNDKLLKVLGRGISLLDAFGAANDVLKGAVQGIAELITRPGLMNVDFADVRTVMSEMGYAMMGSGVASGEDRAEEAAEMAISSPLLEDIDLSGARGVLVNITAGFDLRLDEFETVGNTIRAFASDNATVVIGTSLDPDMNDELRVTVVATGIGMDKRPEITLVTNKQVQQPVMDRYQQHGMAPLTQEQKPVAKVVNDNAPQTAKEPDYLDIPAFLRKQAD
notes: also called λCI-FtsZ; Eco FtsZ; not shown: RNA polymerase α subunit N-terminal domain, N-terminal, kept
B2: α-FtsZ-D180K (natural protein, E. coli, UniProt P0A9A6 1-383, looked up)
chain: B1 chain with D180K
notes: not shown: RNA polymerase α subunit N-terminal domain, N-terminal, kept
B3: α-FtsZ-D180N (natural protein, E. coli, UniProt P0A9A6 1-383, looked up)
chain: B1 chain with D180N
notes: as for B2
B4: α-FtsZ-S177P (natural protein, E. coli, UniProt P0A9A6 1-383, looked up)
chain: B1 chain with S177P
notes: as for B2
B5: α-FtsZ-L169P (natural protein, E. coli, UniProt P0A9A6 1-383, looked up)
chain: B1 chain with L169P
notes: as for B2
B6: α-MreB-E196G (natural protein, E. coli, UniProt P0A9X4 1-347, looked up)
chain: MLKKFRGMFSNDLSIDLGTANTLIYVKGQGIVLNEPSVVAIRQDRAGSPKSVAAVGHDAKQMLGRTPGNIAAIRPMKDGVIADFFVTEKMLQHFIKQVHSNSFMRPSPRVLVCVPVGATQVERRAIRESAQGAGAREVFLIEEPMAAAIGAGLPVSEATGSMVVDIGGGTTEVAVISLNGVVYSSSVRIGGDRFDGAIINYVRRNYGSLIGEATAERIKHEIGSAYPGDEVREIEVRGRNLAEGVPRGFTLNSNEILEALQEPLTGIVSAVMVALEQCPPELASDISERGMVLTGGGALLRNLDRLLMEETGIPVVVAEDPLTCVARGGGKALEMIDMHGGDLFSEE
notes: as for B2
B7: α-MreB-V173A (natural protein, E. coli, UniProt P0A9X4 1-347, looked up)
chain: B6 chain with V173A, G196E
notes: as for B2
B8: α-MreB-E262G (natural protein, E. coli, UniProt P0A9X4 1-347, looked up)
chain: B6 chain with G196E, E262G
notes: as for B2
B9: α-MreB-I126V (natural protein, E. coli, UniProt P0A9X4 1-347, looked up)
chain: B6 chain with I126V, G196E
notes: as for B2

What all share (assay): two-hybrid
The target of data set [1] is T1, λCI-CbtA fusion protein (wild-type CbtA …). To be noted: partners not purified.
Data set [2] has as its target T3, λCI-ZipACTD (residues 186–328) (E. coli, UniProt P77173 186-328).
T3 construct: also called C-terminal domain of ZipA; not shown: λCI, N-terminal, kept
To be noted: partners not purified.

The data set “two-hybrid” deals with the molecule itself.
The next data set has as its target T2, λCI-CbtA-V48E. Particulars: partners not purified.
Data set [3] addresses B1. Particulars: partners not purified.
Data set [4] addresses T4, λCI-RodZNTD (residues 2–84) (E. coli, UniProt P27434 2-84).
T4 construct: also called cytoplasmic N-terminal domain of RodZ; not shown: λCI, N-terminal, kept
To be noted: partners not purified.

Substitutions are numbered along the chain they refer to. Bounds are passed on as bounds.

T4 sequence (P27434 2-84): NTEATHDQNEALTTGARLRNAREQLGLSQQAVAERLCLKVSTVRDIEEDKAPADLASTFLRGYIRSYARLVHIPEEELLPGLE

Regarding B1, the “fold increase in lacZ expression” value in data set [1] turned out to be 18 fold; in data set [2], 10 fold; in “two-hybrid” it was 4 fold.

With B2, in the data set with λCI-CbtA-V48E, the “fold increase in lacZ expression” value stood at 9 fold.

With B3, in data set [3], the “percent reduction of lacZ expression against wild-type α-FtsZ” value was below 25%.

B4: the “percent reduction of lacZ expression against wild-type α-FtsZ” value in data set [3] is below 25%.

As for B5, the “percent reduction of lacZ expression against wild-type α-FtsZ” value in data set [3] is below 25%.

As for B6, the “percent reduction of lacZ expression against wild-type α-MreB” value in data set [4] was below 30%.

Take B7: the “percent reduction of lacZ expression against wild-type α-MreB” value in data set [4] is below 30%.

Turning to B8, the “percent reduction of lacZ expression against wild-type α-MreB” value in data set [4] was below 30%.

On to B9, for which the “percent reduction of lacZ expression against wild-type α-MreB” value in data set [4] is below 30%.
